Test [1] has as its system CHO-S-HuTIM-3 cells. Kind of test: CDC against CHO-S-HuTIM-3 cells. It is filed as cell-based. The settings on record: 10 or 100 μg/mL, 10% human serum, FIG. 4. The method, then: (§1) CHO-S-HuTIM-3 cells and Daudi cells (Shanghai Cell Bank of Chinese Academy of Sciences) were inoculated into a 96-well plate. […] Finally, CCK-8 reagent (Dojindo Laboratories) was added and reacted for 4 h. The OD value was measured at a wavelength of 450 nm using a microplate reader, and the lysis rate (%) was calculated.

In test [2] the test system is CHO-S-HuTIM-3 cells. Nature of the test: ADCC against CHO-S-HuTIM-3 cells. It is filed as cell-based. The following applies: 10 or 100 μg/mL, effector cells PBMC, FIG. 3. As for the experimental part: (§2) After the reaction was completed, the mixture was centrifuged, and the supernatant was collected and measured for fluorescence values at 490 nm as excitation wavelength and 515 nm as emission wavelength. The cells were lysed directly with 0.1% Triton X-100 and centrifuged, and then the supernatant was collected to determine the total fluorescence value. The lysis rate (%) was calculated based on the fluorescence value.

Test [3] has as its target T1, CHO-S-HuTIM-3 cells highly expressing human TIM-3 (Homo sapiens, UniProt Q8TDQ0).
T1 construct: expressed in transfected cells; host or cells: CHO-S
Nature of the test: Binding to cells highly expressing human TIM-3 (cell ELISA). As for the experimental part:
The human TIM-3 gene was transfected into CHO-S cells, and the cells were incubated in an incubator at 37° C. with 5% CO2 using a Dynamis AGT medium (containing 4 mM glutamic acid and 3 μg/mL Puromycin) to give CHO-S-HuTIM-3 cells. […] After the reaction was stopped with H2SO4, the OD value was measured at a wavelength of 450 nm using a full-function microplate reader Synergy H4. The binding EC50 was calculated based on the OD value.
(In an ELISA, binding on a coated surface is turned into a signal by an enzyme label.)

The subject of test [4] is Daudi cells. Nature of the test: ADCC against Daudi cells. It is filed as cell-based. The following applies: 1 or 10 μg/mL, effector cells PBMC, FIG. 3. The method, then: as §2
Test [5] relates to Daudi cells. Nature of the test: CDC against Daudi cells. It is filed as cell-based. The following applies: 10 or 100 μg/mL, 10% human serum, FIG. 4. The method, then:
as §1

Test [6] addresses T2, human TIM-3 recombinant protein (R&D) (human, UniProt Q8TDQ0 22-200).
T2 construct: Bought recombinant protein; also called human TIM-3 protein
Nature of the test: ELISA, human TIM-3 coated, h50B5 titrated, anti-human kappa-HRP.

Test [7] addresses T3, cynomolgus monkey TIM-3 recombinant protein (Acro) (cynomolgus monkey, UniProt A0A2K5U3G7 22-193).
T3 construct: Bought recombinant protein; His tag implied only by the Anti-His HRP detection; also called cynomolgus monkey TIM-3 protein
T3 sequence: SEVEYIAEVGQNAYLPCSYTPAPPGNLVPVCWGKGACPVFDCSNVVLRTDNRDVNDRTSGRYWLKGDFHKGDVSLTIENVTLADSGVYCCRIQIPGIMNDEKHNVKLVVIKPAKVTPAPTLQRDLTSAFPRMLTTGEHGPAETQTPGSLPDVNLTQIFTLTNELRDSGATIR
Kind of test: ELISA, h50B5 coated at 2 µg/mL, cynomolgus TIM-3 titrated, Anti-His HRP.

Test [8] has as its target T4, human TIM-3 on CHO-S-HuTIM-3 cells (human, UniProt Q8TDQ0 22-301).
T4 construct: whole, on cells; Human TIM-3 gene transfected into CHO-S cells; also called CHO-S-HuTIM-3 cells highly expressing human TIM-3
Nature of the test: cell ELISA on CHO-S-HuTIM-3 cells, anti-human kappa-HRP.

The results in this text go back to patent publication US20250230242A1, “PHARMACEUTICAL COMPOSITION OF ANTI-TIM-3 ANTIBODY AND HYPOMETHYLATING AGENT” (NANJING SHUNXIN PHARMACEUTICALS CO., LTD. OF CHIATAI …, priority 2022, published 2025).

For “TSR022: anti-TIM-3 antibody used as benchmark, heavy chain SEQ ID NO: 22, light chain SEQ ID NO: 23 [reference compound]”, the “CDC against CHO-S-HuTIM-3 cells” value with CHO-S-HuTIM-3 cells [1] is “did not show significant CDC”. Moreover, the “ADCC against CHO-S-HuTIM-3 cells” value with CHO-S-HuTIM-3 cells [2] is “did not show significant ADCC”. In addition, the “EC50 of binding to CHO-S-HuTIM-3 cells” value in test [3] (FIG. 1) worked out at 6.8155 ± 0.1662 µg/mL. The “maximum binding Emax (OD450), CHO-S-HuTIM-3 cells” value in test [3] (FIG. 1, OD450) turned out to be 0.26±0.05.

Take “Rituxan®: positive control for ADCC and CDC with Daudi cells as target cells”: the “ADCC against Daudi cells” value in the test with Daudi cells [4] is on record as “exhibited significant ADCC”. Moreover, the “CDC against Daudi cells” value with Daudi cells [5] was “exhibited significant CDC”.

B1: humanized anti-TIM-3 antibody h50B5 (antibody, human IgG4 S228P, kappa, V domains shown)
VH: QVQLVQSGAEVKKPGASVKVSCKASGYSFTGYTINWVRQAPGQGLEWMGLFNPYNGGTTYAQKFQGRVTMTVDKSTSTVYMELSSLRSEDTAVYYCARRYYGYDAMDYWGQGTLVTVSS
VL: DIQMTQSPSSLSASVGDRVTITCKSSQSVLYSSNQKNHLAWYQQKPGKAPKLLIYWASTRESGVPSRFSGSGSGTDFTLTISSLQPEDFATYYCHQYLSSYTFGQGTKLEIKR
notes: Humanized from mouse mAb 50B5 by CDR grafting; human IgG4 heavy chain constant region and human light chain constant region
With B1, the EC50 (commonly the concentration giving half of the maximal effect) in test [6] was determined as 0.291 µg/mL; in test [7], 1.64 µg/mL; in test [8], 1.46 µg/mL.

B2: anti-TIM-3 antibody TSR022 (antibody, human IgG4 S228P, kappa, V domains shown)
VH: EVQLLESGGGLVQPGGSLRLSCAAASGFTFSSYDMSWVRQAPGKGLDWVSTISGGGTYTYYQDSVKGRFTISRDNSKNTLYLQMNSLRAEDTAVYYCASMDYWGQGTTVTVSS
VL: DIQMTQSPSSLSASVGDRVTITCRASQSIRRYLNWYHQKPGKAPKLLIYGASTLQSGVPSRFSGSGSGTDFTLTISSLQPEDFAVYYCQQSHSAPLTFGGGTKVEIKR
notes: Benchmark antibody, prepared in the same way as h50B5
The molecule B2 showed an EC50 in test [8] of 6.82 µg/mL.
